According to patent US20050048070A1 (published 2005):

Columns and labels:
[1] = molecular target: T1, bovine serum albumin (bovine, UniProt P02769 25-607); test: ELISA on coated antigens (data not shown)
T1 construct: Irrelevant antigen in the ELISA; also called BSA

[2] = molecular target: T2, ovalbumin (UniProt P01012 2-386); test: ELISA on coated antigens (data not shown)
T2 construct: Irrelevant antigen in the ELISA
T2 sequence (looked up): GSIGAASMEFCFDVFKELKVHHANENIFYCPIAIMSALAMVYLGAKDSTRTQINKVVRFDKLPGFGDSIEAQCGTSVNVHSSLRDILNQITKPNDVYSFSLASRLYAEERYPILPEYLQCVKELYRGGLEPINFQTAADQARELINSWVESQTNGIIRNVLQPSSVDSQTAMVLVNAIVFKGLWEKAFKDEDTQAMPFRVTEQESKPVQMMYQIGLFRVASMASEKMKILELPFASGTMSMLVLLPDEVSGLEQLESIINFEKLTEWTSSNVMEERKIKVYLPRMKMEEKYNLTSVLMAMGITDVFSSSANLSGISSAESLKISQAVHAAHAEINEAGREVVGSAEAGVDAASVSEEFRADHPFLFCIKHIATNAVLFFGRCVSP

[3] = molecular target: T3, K18(1-65) GST fusion protein (human, UniProt P05783 2-66); test: Western blot of SDS-PAGE-separated GST fusion proteins
T3 construct: Alone, not complexed; not shown: glutathione S-transferase (GST) fusion partner, modified pGEX-2T vector
T3 sequence: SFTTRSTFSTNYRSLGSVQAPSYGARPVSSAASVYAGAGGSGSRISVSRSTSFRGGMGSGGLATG

[4] = molecular target: T4, cleaved K8/K18 heterotypic complexes from adenovirus-infected HeLa cells (human, UniProt P05787 2-483; P05783 75-430, limits assumed); test: Western blot of cytokeratin purified from adenovirus-infected HeLa cells (data not shown)
T4 construct: also called cytokeratin from HeLa cells infected with adenovirus
T4 chain 1: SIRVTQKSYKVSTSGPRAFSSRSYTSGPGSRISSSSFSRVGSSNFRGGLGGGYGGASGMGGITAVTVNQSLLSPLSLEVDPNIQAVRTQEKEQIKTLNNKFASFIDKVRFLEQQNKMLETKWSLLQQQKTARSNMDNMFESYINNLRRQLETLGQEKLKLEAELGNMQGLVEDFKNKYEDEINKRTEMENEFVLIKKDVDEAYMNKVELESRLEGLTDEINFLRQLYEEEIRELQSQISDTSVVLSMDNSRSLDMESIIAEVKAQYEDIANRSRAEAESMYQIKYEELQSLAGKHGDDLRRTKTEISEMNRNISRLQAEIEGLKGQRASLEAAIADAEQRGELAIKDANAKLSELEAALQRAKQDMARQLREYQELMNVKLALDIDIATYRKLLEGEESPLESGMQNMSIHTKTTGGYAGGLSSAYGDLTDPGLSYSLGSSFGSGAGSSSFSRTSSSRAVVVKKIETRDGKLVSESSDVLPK
T4 chain 2: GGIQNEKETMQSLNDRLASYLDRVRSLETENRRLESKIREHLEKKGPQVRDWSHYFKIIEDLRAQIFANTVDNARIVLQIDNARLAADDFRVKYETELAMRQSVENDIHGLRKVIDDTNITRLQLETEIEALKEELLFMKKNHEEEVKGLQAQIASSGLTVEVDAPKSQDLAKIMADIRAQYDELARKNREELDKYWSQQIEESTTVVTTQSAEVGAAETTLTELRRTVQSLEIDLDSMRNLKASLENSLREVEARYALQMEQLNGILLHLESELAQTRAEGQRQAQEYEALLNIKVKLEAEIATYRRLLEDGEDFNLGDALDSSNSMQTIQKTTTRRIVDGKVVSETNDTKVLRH

[5] = molecular target: T5, K8(1-85)/K18(1-124) heterotypic complex (human, UniProt P05787 2-86; P05783 2-125); test: heterotypic association assay: blotted K8 proteins incubated with purified K18(1-124), then stained with COU-1
T5 construct: Heterotypic complex of two GST fusion proteins; not shown: glutathione S-transferase (GST) fusion partner, modified pGEX-2T vector

[6] = molecular target: T6, N-terminally truncated K8 protein where the first 22 amino acids were missing (from colon cancer tissue) (human, UniProt P05787 24-483); test: Western blot of cytokeratin bands from colon cancer tissue, bands identified by N-terminal sequencing (drawn table)
T6 construct: also called K8 starting at residue 23
T6 chain: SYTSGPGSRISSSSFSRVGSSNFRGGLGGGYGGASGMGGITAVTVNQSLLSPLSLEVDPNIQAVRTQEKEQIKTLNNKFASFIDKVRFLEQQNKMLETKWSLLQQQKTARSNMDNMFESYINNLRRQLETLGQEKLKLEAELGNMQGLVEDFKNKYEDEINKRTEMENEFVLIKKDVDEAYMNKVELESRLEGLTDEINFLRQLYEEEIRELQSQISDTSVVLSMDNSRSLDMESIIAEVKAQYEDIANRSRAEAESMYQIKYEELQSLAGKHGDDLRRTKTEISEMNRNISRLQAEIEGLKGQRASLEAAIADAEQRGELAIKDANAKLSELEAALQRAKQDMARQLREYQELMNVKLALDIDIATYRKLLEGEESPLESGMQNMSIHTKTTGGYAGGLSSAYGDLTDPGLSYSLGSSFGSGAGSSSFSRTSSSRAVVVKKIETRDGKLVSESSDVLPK
Method: Protein bands were visualized with Coomassie Brilliant Blue. Separated proteins were also electroblotted onto polyvinylidene difluoride membranes (PVDF, Immobilon P, Millipore, Bedford, Mass.), at 100 Volts for 1 h in ice, using transfer buffer (10% (v/v) ethanol, 25 mM Tris, 200 mM glycine). Prior to transfer, the membrane was pre-soaked in ethanol for 2 min and the membranes and the gel were incubated in transfer buffer for 10 min. […] The membrane was washed in Western blot buffer and incubated with AP-conjugated rabbit-anti-goat IgG antibody (diluted 1/1000, Sigma), or AP-conjugated rabbit-anti-human IgM antibody (diluted 1/500, DAKO, Glostrup, Denmark) for 2 h at room temperature. Following 3 washes in PBS, the membrane was fixed with 0.2% glutaraldehyde in PBS for 15 min at room temperature and finally washed in PBS. Bound AP conjugate was visualized by NBT/BCIP (Bio-Rad, Hercules, Calif.). MCF7 or Colon 137 cells, resuspended in SDS sample buffer and sonicated, were used as antigen control. A low range protein marker (Bio-Rad) was used to indicate the molecular weight of the fragments.

[7] = molecular target: T7, K8(1-85)/intact K18 heterotypic complex (human, UniProt P05787 2-86; P05783 2-430); test: summary map of the heterotypic association assay: GST deletion protein incubated with the complementary keratin, then stained with COU-1
T7 construct: Heterotypic complex of two GST fusion proteins; also called intact K8(1-85)/intact K18; not shown: glutathione S-transferase (GST) fusion partner, modified pGEX-2T vector
T7 chain 1: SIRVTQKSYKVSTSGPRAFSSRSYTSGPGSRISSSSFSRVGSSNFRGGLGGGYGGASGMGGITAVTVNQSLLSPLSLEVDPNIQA
T7 chain 2: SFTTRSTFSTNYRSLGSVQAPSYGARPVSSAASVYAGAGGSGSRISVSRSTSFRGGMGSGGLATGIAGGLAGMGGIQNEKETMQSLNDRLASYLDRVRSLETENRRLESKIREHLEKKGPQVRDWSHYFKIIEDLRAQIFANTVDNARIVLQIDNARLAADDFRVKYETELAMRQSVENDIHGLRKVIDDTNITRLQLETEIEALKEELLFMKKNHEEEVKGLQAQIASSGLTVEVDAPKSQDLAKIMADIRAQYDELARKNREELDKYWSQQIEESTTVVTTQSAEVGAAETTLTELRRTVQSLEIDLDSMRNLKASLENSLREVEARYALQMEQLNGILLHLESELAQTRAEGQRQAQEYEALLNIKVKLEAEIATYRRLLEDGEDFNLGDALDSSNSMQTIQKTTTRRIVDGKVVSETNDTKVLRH

T1 sequence (P02769 25-607 limits assumed): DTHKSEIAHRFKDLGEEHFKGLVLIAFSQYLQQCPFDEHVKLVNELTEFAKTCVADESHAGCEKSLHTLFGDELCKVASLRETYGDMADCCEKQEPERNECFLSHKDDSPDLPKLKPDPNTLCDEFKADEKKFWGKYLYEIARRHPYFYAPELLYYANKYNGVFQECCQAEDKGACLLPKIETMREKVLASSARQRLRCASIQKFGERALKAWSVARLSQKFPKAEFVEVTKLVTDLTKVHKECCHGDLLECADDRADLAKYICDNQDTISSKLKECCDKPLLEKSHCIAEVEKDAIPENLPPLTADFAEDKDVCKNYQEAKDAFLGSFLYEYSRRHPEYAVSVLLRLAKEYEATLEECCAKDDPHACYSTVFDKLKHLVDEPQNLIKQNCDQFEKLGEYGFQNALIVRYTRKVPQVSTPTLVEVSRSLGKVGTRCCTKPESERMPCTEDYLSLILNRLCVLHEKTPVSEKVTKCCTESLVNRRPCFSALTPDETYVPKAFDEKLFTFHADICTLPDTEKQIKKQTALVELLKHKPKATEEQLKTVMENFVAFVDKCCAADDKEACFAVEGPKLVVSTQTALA

B1: human monoclonal IgM antibody COU-1 (antibody, V domains shown)
VH: GAEVKKPGASVKVSCKASDYTFSSYYMHWVRQAPGQGLEWMGIINPSGGSTSYAQKFQGRVTMTRDTSTNTVYMELSSLRSEDTAVYYCARDQVVVAATLSNYGMDVWGQGTTVTVSS
VL: ELTQSPGTLSLSPGERATLSCRASQSVSSSYLAWYQQKPGQAPRLLIYDASNRATGIPARFSGSGSGTDFTLTISSLEPEDFAVYYCQQGTNWGIAFGQGTRLDIKR
notes: Human IgM with kappa light chain, secreted by hybridoma B9165 (ECACC 87040201), purified from culture supernatant; also called HMab COU-1; HuMab COU-1
binding result [1]: no binding
binding result [2]: no binding
binding result [3]: no binding (tested: COU-1 5 µg/ml)
binding result [4]: no binding
binding result [5]: no binding (tested: 5 µg/ml COU-1 (P-0285))
binding result [6]: no binding (tested: 5 µg/ml COU-1 (P-0279))
binding result [7]: no binding (tested: 5 µg/ml COU-1 (P-0285))
